Source: US20240309109A1 (MorphoSys, published 2024)

What was measured:
[1] = target: T1, human CD38 Fc-fusion aa 45-300 (human, UniProt P28907 45-300); assay: SPR (Biacore), Fab on immobilized CD38 Fc-fusion
T1 construct: Expressed in HEK293 behind a human Vkappa leader, which is left out here; also called CD38-Fc fusion protein; CD38 Fc-Fusion protein

[2] = target: T1, human CD38 Fc-fusion aa 45-300; assay: ELISA on CD38 Fc-fusion protein, IgG format
[3] = target: T2, human CD38 on cells (human, UniProt P28907 1-300); assay: FACS Scatchard on OPM2 cells, IgG format
T2 construct: The cell that carried CD38 is named under assay in each row; also called CD38 on Raji, RPMI8226, OPM2, CCRF-CEM, human erythrocytes, CD38 CHO-K1 transfectants

[4] = target: T1, human CD38 Fc-fusion aa 45-300; assay: SPR (Biacore), Fab format
[5] = target: CD38 (antigen of the Bioveris affinity determination) (Homo sapiens (Human), UniProt P28907 45-300, limits assumed); assay: Bioveris, Fab format
[6] = target: T2, human CD38 on cells; assay: FACS Scatchard on RPMI8226 cells

B1: MOR03129 Fab (Fab, V domains shown)
VH: QVQLVESGGGLVQPGGSLRLSCAASGFTFSNYSMNWVRQAPGKGLEWVSYIYGGGSYTYYADSVKGRFTISRDNSKNTLYLQMNSLRAEDTAVYYCARQAGMYFDVWGQGTLVTVSS
VL: DIELTQPPSVSVAPGQTARISCSGDNLGSKVVSWYQQKPGQAPVLVIYYDNKRPSGIPERFSGSNSGNTATLTISGTQAEDEADYYCQSYTFESGSVVFGGGTKLTVLG
notes: Fab format
Kd [1]: 43 nM

B2: MOR03085 Fab (Fab, V domains shown)
VH: QVQLVQSGAEVKKPGASVKVSCKASGYTFTGYYINWVRQAPGQGLEWMGWIFPNGGSTGYAQKFQGRVTMTRDTSISTAYMELSSLRSEDTAVYYCARGNIFIFDYWGQGTLVTVSS
VL: DIVLTQPPSVSGAPGQRVTISCSGSSSNIGNNYVSWYQQLPGTAPKLLIYGDDQRPSGVPDRFSGSKSGTSASLAITGLQSEDEADYYCQSYGTFSSFVFGGGTKLTVLG
notes: Fab format
Kd [1]: 122 nM

B3: MOR03102 Fab (Fab, V domains shown)
VH: QVQLQESGPGLVKPGETLSLTCTVSGGSISGNYWSWIRQAPGKGLEWIGDYHGSTYYNPSLKGRVTISVDTSKNQFSLKLSSVTAEDTAVYYCAREQYHWGLAWTGFDNWGQGTLVTVSS
VL: DIELTQPPSVSVAPGQTARISCSGDNLGHYYVSWYQQKPGQAPVLVIYDDSDRPSGIPERFSGSNSGNTATLTISGTQAEDEADYYCGAYAMHMTVFGGGTKLTVLG
notes: Fab format
Kd [1]: 64 nM

B4: MOR03131 Fab (Fab, V domains shown)
VH: QVQLKESGPALVKPTQTLTLTCTFSGFSLSNSGVGVGWIRQPPGKALEWLADIYSDTTKRYSTSLKTRLTISKDTSKNQVVLTMTNMDPVDTATYYCARYGEAYFDYWGQGTLVTVSS
VL: DIELTQPPSVSVAPGQTARISCSGDNLGNFYVHWYQQKPGQAPVLVIYEDSNRPSGIPERFSGSNSGNTATLTISGTQAEDEADYYCSSWDMYRTIFVFGGGTKLTVLG
notes: Fab format
Kd [1]: 451 nM

B5: MOR03086 Fab (Fab, V domains shown)
VH: QVQLVESGGGLVQPGGSLRLSCAASGFTFTSYYMHWVRQAPGKGLEWVSYIDSSGSSTYYADSVKGRFTISRDNSKNTLYLQMNSLRAEDTAVYYCARQLMPFGGYFDVWGQGTLVTVSS
VL: DIQMTQSPSSLSASVGDRVTITCRASQNISQWLNWYQQKPGKAPKLLIYGASNLQSGVPSRFSGSGSGTDFTLTISSLQPEDFATYYCQQYYDLPNTFGQGTKVEIKR
notes: Fab format
Kd [1]: 30 nM

B6: MOR03089 Fab (Fab, V domains shown)
VH: QVQLKESGPALVKPTQTLTLTCTFSGFSLSSDGMGVGWIRQPPGKALEWLALIDWDDDKRYSTSLKTRLTISKDTSKNQVVLTMTNMDPVDTATYYCARFNWFYRLAFVNPDVWGQGTLVTVSS
VL: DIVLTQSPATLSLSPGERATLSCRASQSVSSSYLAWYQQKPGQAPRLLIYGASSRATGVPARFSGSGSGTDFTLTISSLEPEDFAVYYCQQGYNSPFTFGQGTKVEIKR
notes: Fab format
Kd [1]: 340 nM

B7: MOR03101 Fab (Fab, V domains shown)
VH: QVQLKESGPALVKPTQTLTLTCTFSGFSLSTSRVGVSWIRQPPGKALEWLAHIDWNDDKYYSTSLKTRLTISKDTSKNQVVLTMTNMDPVDTATYYCAREDRLLGGYGYDVWGQGTLVTVSS
VL: DIELTQPPSVSVAPGQTARISCSGDSLGSYYVHWYQQKPGQAPVLVIGDDTKRPSGIPERFSGSNSGNTATLTISGTQAEDEADYYCGSRTGYNNSFVFGGGTKLTVLG
notes: Fab format
Kd [1]: 314 nM

B8: MOR06204 IgG (antibody, V domains shown)
VH: QVQLVESGGGLVQPGGSLRLSCAASGFTFSSYAMNWVRQAPGKGLEWVSHIRKKNTSYTTEYAASVKGRFTISRDNSKNTLYLQMNSLRAEDTAVYYCAREDGSYMTDYFAYWGQGTLVTVSS
VL: DIELTQPPSVSVAPGQTARISCSGDNIGHYYVSWYQQKPGQAPVLVIYSDSNRPSGIPERFSGSNSGNTATLTISGTQAEDEADYYCQSYNGTYVFGGGTKLTVLG
notes: copies: 2 + 2
ELISA CD38 Fc-Fusion protein (% Reactivity of MOR03087) [2]: 56%

B9: MOR06214 IgG (antibody, V domains shown)
VH: QVQLVESGGGLVQPGGSLRLSCAASGFTFSSYAMNWVRQAPGKGLEWVSNIQRVGSTYYADSVKGRFTISRDNSKNTLYLQMNSLRAEDTAVYYCAREDGSYMTDYFAYWGQGTLVTVSS
VL: DIELTQPPSVSVAPGQTARISCSGDNIGHYYVSWYQQKPGQAPVLVIYSDSNRPSGIPERFSGSNSGNTATLTISGTQAEDEADYYCQSYNGTYVFGGGTKLTVLG
notes: copies: 2 + 2
ELISA CD38 Fc-Fusion protein (% Reactivity of MOR03087) [2]: 109%

B10: MOR06195 IgG (antibody, V domains shown)
VH: QVQLVESGGGLVQPGGSLRLSCAASGFTFSSYYMNWVRQAPGKGLEWVSAISGNGGHTYYADSVKGRFTISRDNSKNTLYLQMNSLRAEDTAVYYCARDLPLVYTGFAYWGQGTLVTVSS
VL: DIELTQPPSVSVAPGQTARISCSGDNLRHYYVYWYQQKPGQAPVLVIYGDSKRPSGIPERFSGSNSGNTATLTISGTQAEDEADYYCQTYTGGASLVFGGGTKLTVLG
notes: copies: 2 + 2
ELISA CD38 Fc-Fusion protein (% Reactivity of MOR03087) [2]: 155%

B11: MOR06183 IgG (antibody, V domains shown)
VH: QVQLVESGGGLVQPGGSLRLSCAASGFTFSSYYMNWVRQAPGKGLEWVSGINMESTRIYYADSVKGRFTISRDNSKNTLYLQMNSLRAEDTAVYYCARDLPLVYTGFAYWGQGTLVTVSS
VL: DIELTQPPSVSVAPGQTARISCSGDNLRHYYVYWYQQKPGQAPVLVIYGDSKRPSGIPERFSGSNSGNTATLTISGTQAEDEADYYCQTYTGGASLVFGGGTKLTVLG
EC50 [3]: 8.91 nM
ELISA CD38 Fc-Fusion protein (% Reactivity of MOR03087) [2]: 106%

B12: MOR06200 IgG (antibody, V domains shown)
VH: QVQLVESGGGLVQPGGSLRLSCAASGFTFSSYYMNWVRQAPGKGLEWVSAISNNGNVTYYADSVKGRFTISRDNSKNTLYLQMNSLRAEDTAVYYCARDLPLVYTGFAYWGQGTLVTVSS
VL: DIELTQPPSVSVAPGQTARISCSGDNLRHYYVYWYQQKPGQAPVLVIYGDSKRPSGIPERFSGSNSGNTATLTISGTQAEDEADYYCQTYTGGASLVFGGGTKLTVLG
notes: copies: 2 + 2
EC50 [3]: 7.15 nM
ELISA CD38 Fc-Fusion protein (% Reactivity of MOR03087) [2]: 144%

B13: MOR06197 IgG (antibody, V domains shown)
VH: QVQLVESGGGLVQPGGSLRLSCAASGFTFSSYYMNWVRQAPGKGLEWVSAISMDGVYKYYADSVKGRFTISRDNSKNTLYLQMNSLRAEDTAVYYCARDLPLVYTGFAYWGQGTLVTVSS
VL: DIELTQPPSVSVAPGQTARISCSGDNLRHYYVYWYQQKPGQAPVLVIYGDSKRPSGIPERFSGSNSGNTATLTISGTQAEDEADYYCQTYTGGASLVFGGGTKLTVLG
notes: copies: 2 + 2
ELISA CD38 Fc-Fusion protein (% Reactivity of MOR03087) [2]: 138%

B14: MOR06201 IgG (antibody, V domains shown)
VH: QVQLVESGGGLVQPGGSLRLSCAASGFTFSSYYMNWVRQAPGKGLEWVSAISMHGDTTYYADSVKGRFTISRDNSKNTLYLQMNSLRAEDTAVYYCARDLPLVYTGFAYWGQGTLVTVSS
VL: DIELTQPPSVSVAPGQTARISCSGDNLRHYYVYWYQQKPGQAPVLVIYGDSKRPSGIPERFSGSNSGNTATLTISGTQAEDEADYYCQTYTGGASLVFGGGTKLTVLG
notes: copies: 2 + 2
ELISA CD38 Fc-Fusion protein (% Reactivity of MOR03087) [2]: 137%

B15: MOR06201 Fab (Fab, V domains shown)
VH: QVQLVESGGGLVQPGGSLRLSCAASGFTFSSYYMNWVRQAPGKGLEWVSAISMHGDTTYYADSVKGRFTISRDNSKNTLYLQMNSLRAEDTAVYYCARDLPLVYTGFAYWGQGTLVTVSS
VL: DIELTQPPSVSVAPGQTARISCSGDNLRHYYVYWYQQKPGQAPVLVIYGDSKRPSGIPERFSGSNSGNTATLTISGTQAEDEADYYCQTYTGGASLVFGGGTKLTVL
notes: Fab format
Kd [4]: 6.81 nM
Kd [5]: 0.0186 nM
EC50 [6]: 9 nM

B16: MOR06192 IgG (antibody, V domains shown)
VH: QVQLVESGGGLVQPGGSLRLSCAASGFTFSSYYMNWVRQAPGKGLEWVSVISPGGEAKSYADSVKGRFTISRDNSKNTLYLQMNSLRAEDTAVYYCARDLPLVYTGFAYWGQGTLVTVSS
VL: DIELTQPPSVSVAPGQTARISCSGDNLRHYYVYWYQQKPGQAPVLVIYGDSKRPSGIPERFSGSNSGNTATLTISGTQAEDEADYYCQTYTGGASLVFGGGTKLTVLG
notes: copies: 2 + 2
ELISA CD38 Fc-Fusion protein (% Reactivity of MOR03087) [2]: 111%
